In patent US20110206660A1 (Ablynx, published 2011):

Legend:
human CXCR4 [1] = target: T1, human CXCR4 (human, UniProt P61073-2 2-356); assay: competition binding vs [125I]-CXCL12, HEK293T-CXCR4 membranes
human CXCR4 [2] = target: T1, human CXCR4; assay: competition binding vs [125I]-238D4, HEK293T-CXCR4 membranes
human CXCR4 [3] = target: T1, human CXCR4; assay: competition binding vs [125I]-238D2, HEK293T-CXCR4 membranes
human CXCR4 [4] = target: T1, human CXCR4; assay: competition binding vs [125I]-CXCL12, HEK293T-CXCR4 membranes; purified Nanobody up to 0.5 µM, tracer [125I]-CXCL12
human CXCR4 [5] = target: T1, human CXCR4; assay: competition binding vs [125I]-238D4, HEK293T-CXCR4 membranes; purified Nanobody up to 0.5 µM, tracer [125I]-238D4
human CXCR4 [6] = target: T1, human CXCR4; assay: competition binding vs [125I]-238D2, HEK293T-CXCR4 membranes; purified Nanobody up to 0.5 µM, tracer [125I]-238D2
human CXCR4 [7] = target: T1, human CXCR4; assay: periplasm fraction (1:10), inhibition of [125I]-CXCL12 binding, HEK293T-CXCR4 membranes; - = 0-29%, + = 30-69%, ++ = 70-100%; periplasma fraction in the clone screen, tracer [125I]-CXCL12; 30-69% inhibition
[8] = target: constitutively active CXCR4 mutant N119A (UniProt P61073 1-352); assay: cell-based or functional assay
human CXCR4 [9] = target: T1, human CXCR4; assay: competition binding vs [125I]-CXCL12, HEK293T-CXCR4 membranes
human CXCR4 [10] = target: T1, human CXCR4; assay: cell-based or functional assay
human CXCR4 [11] = target: T1, human CXCR4; assay: competition with [125I]-238D2, membranes of HEK293T cells expressing CXCR4
human CXCR4 [12] = target: T1, human CXCR4; assay: competition with [125I]-CXCL12, membranes of HEK293T cells expressing CXCR4
human CXCR4 [13] = target: T1, human CXCR4; assay: cell-based or functional assay; remark: listed apart in the source
CXCR3 [14] = target: T2, CXCR3 (UniProt P49682 1-368); assay: total binding of [125I]-238D4 to membranes of HEK293T cells expressing CXCR4 or CXCR3, without (-) and with 3 µM AMD3100
T2 construct: whole, on cells; also called chemokine receptor CXCR3
T2 sequence (looked up): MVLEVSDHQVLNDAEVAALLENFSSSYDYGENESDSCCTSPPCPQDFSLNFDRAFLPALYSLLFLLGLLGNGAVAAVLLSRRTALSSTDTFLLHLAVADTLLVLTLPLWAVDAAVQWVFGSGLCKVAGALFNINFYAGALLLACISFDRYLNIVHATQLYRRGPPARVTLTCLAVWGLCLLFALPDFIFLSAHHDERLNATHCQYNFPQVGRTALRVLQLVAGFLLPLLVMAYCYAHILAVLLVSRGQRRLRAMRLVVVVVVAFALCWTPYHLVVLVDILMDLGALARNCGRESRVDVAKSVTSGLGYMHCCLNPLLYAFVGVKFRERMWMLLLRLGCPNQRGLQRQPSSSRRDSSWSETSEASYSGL

human CXCR4 [15] = target: T1, human CXCR4; assay: competition with [125I]-238D4, membranes of HEK293T cells expressing CXCR4
human CXCR4 [16] = target: T1, human CXCR4; assay: competition binding vs [125I]-CXCL12, HEK293T-CXCR4 membranes; remark: listed apart in the source
CXCR3 [17] = target: T2, CXCR3; assay: total binding of [125I]-238D2 to membranes of HEK293T cells expressing CXCR4 or CXCR3, without (-) and with 3 µM AMD3100

Sequence of constitutively active CXCR4 mutant N119A (P61073 whole entry N119A): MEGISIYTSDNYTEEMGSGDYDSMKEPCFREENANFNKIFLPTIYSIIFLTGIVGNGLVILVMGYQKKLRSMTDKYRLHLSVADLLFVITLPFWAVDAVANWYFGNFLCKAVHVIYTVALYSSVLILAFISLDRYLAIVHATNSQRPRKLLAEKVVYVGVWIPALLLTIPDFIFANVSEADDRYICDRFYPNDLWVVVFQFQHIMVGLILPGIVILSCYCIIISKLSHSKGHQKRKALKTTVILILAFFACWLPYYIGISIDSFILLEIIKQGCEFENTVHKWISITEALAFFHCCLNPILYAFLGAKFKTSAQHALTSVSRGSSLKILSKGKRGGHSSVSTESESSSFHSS
T1 sequence (P61073 other isoform, or with tags, fused parts or gaps): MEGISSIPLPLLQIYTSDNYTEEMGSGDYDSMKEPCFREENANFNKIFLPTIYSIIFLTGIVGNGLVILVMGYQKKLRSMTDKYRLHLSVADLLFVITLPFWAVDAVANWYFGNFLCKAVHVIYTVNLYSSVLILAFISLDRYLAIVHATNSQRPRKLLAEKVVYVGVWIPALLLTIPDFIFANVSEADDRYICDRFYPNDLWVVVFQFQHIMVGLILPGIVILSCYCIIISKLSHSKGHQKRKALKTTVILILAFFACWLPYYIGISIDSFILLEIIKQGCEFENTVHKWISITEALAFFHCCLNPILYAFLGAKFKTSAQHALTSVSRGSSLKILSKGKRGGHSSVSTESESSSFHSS

Molecule: monoclonal antibody 12G5
- maximal displacement (human CXCR4 [1]): 54%
- pKi (human CXCR4 [1]): 9.19
- maximal displacement (human CXCR4 [2]): 90%
- pKi (human CXCR4 [2]): 9.31
- maximal displacement (human CXCR4 [3]): 89%
- pKi (human CXCR4 [3]): 9.65

B1: Nanobody 237A6 (VHH)
VHH: EVQLVESGGGLVQAGGSLRLSCAASGSIFSLNAMGWYRQAPGKQRELVAGITSSTSTYYADSVKGRFTISRDNTKNTVYLQMNSLKPEDTAVYYCNVDCPDYYSDYECPLEDRGQGTQVTVSS
notes: Monovalent VHH
- pKi (human CXCR4 [4]): < 6.3
- pKi (human CXCR4 [5]): < 6.3
- pKi (human CXCR4 [6]): < 6.3
- percent inhibition of specific [125I]-CXCL12 binding (human CXCR4 [7]): 30 to 69%

B2: 238D2-20GS-238D4 (VHH)
chain: EVQLVESGGGLVQTGGSLRLSCAASGFTFSSYAMSWVRQAPGKGLEWVSGIKSSGDSTRYAGSVKGRFTISRDNAKNMLYLQMYSLKPEDTAVYYCAKSRVSRTGLYTYDNRGQGTQVTVSSGGGGSGGGGSGGGGSGGGGSEVQLMESGGGLVQAGGSLRLSCAASGRTFNNYAMGWFRRAPGKEREFVAAITRSGVRSGVSAIYGDSVKDRFTISRDNAKNTLYLQMNSLKPEDTAVYTCAASAIGSGALRRFEYDYSGQGTQVTVSS
- reduction of the constitutively increased basal inositol phosphate accumulation, HEK293T-CXCR4 (N119A) [8]: 65%

B3: Nanobody 238D4 (VHH)
VHH: EVQLMESGGGLVQAGGSLRLSCAASGRTFNNYAMGWFRRAPGKEREFVAAITRSGVRSGVSAIYGDSVKDRFTISRDNAKNTLYLQMNSLKPEDTAVYTCAASAIGSGALRRFEYDYSGQGTQVTVSS
notes: Monovalent llama VHH; also called 238G3; 238D4, G3
- maximal displacement (human CXCR4 [9]): 99%
- pKi (human CXCR4 [9]): 8.22
- CRE activation, HEK293T-CXCR4-CREbgal/0.01-100 nM CXCL12: pKi or pIC50 (pKB from the Schild plot by the text) (human CXCR4 [10]): 7.7
- Chemotaxis, Jurkat/0.3 nM CXCL12: pKi or pIC50 (human CXCR4 [10]): 8.31
- IP accumulation, HEK293T-CXCR4-Gαqi5/30 nM CXCL12: pKi or pIC50 (human CXCR4 [10]): 8.39
- pKi (human CXCR4 [2]): 8.55
- IC50 (read off the curve) (human CXCR4 [11]): ~3 nM
- IC50 (read off the curve) (human CXCR4 [12]): ~10 nM
- migration of Jurkat cells towards 0.3 nM CXCL12 (ChemoTx): IC50 (read off the curve) (human CXCR4 [13]): ~8 nM
- binding result (CXCR3 [14]): no binding (tested: 3 nM)
- pKi (human CXCR4 [3]): 8.8
- IC50 (read off the curve) (human CXCR4 [15]): ~4 nM
- reduction of the constitutively increased basal inositol phosphate accumulation, HEK293T-CXCR4 (N119A) [8]: 49%

B4: Nanobody 237D1 (VHH)
VHH: EVQLVESGGGLAQPGGPLRLTCEASGVIYSVNDMGWYRQAPGKQRELVAVITSGGGTNYVDSVKGRFTISGDNRKKTVYLQMNSLKPEDTAVYYCSIYYSSGISTLRSWGQGTQVTVSS
notes: Monovalent VHH
- pKi (human CXCR4 [4]): < 6.3
- pKi (human CXCR4 [5]): < 6.3
- pKi (human CXCR4 [6]): < 6.3
- percent inhibition of specific [125I]-CXCL12 binding (human CXCR4 [7]): 30 to 69%

B5: Nanobody 238C5 (VHH)
VHH: EVQLMESGGGLVQAGGSLRLACAASGFTFEDYAIGWFRKAPGKEREGVSCISGSDGSTTYADSVKGRFTISTDNAKNTVYLEMNSLKPEDTAVYYCAQQYGVGGRVVCPGPYEYDVWGQGTQVTVSS
notes: Monovalent VHH; also called 238C5, G2, xH5, 238C3, D6, E6
- maximal displacement (human CXCR4 [9]): 0%
- pKi (human CXCR4 [9]): < 6.3
- pKi (human CXCR4 [2]): < 7
- pKi (human CXCR4 [3]): < 7

B6: 238D4-20GS-238D4 (VHH)
chain: EVQLMESGGGLVQAGGSLRLSCAASGRTFNNYAMGWFRRAPGKEREFVAAITRSGVRSGVSAIYGDSVKDRFTISRDNAKNTLYLQMNSLKPEDTAVYTCAASAIGSGALRRFEYDYSGQGTQVTVSSGGGGSGGGGSGGGGSGGGGSEVQLMESGGGLVQAGGSLRLSCAASGRTFNNYAMGWFRRAPGKEREFVAAITRSGVRSGVSAIYGDSVKDRFTISRDNAKNTLYLQMNSLKPEDTAVYTCAASAIGSGALRRFEYDYSGQGTQVTVSS
notes: Bivalent Nanobody, 20-residue GS linker; also called L13
- Rel. potency (relative to monovalent 238D4) (human CXCR4 [16]): 4.4 fold
- pKi (human CXCR4 [16]): 8.85

B7: Nanobody 238D2 (VHH)
VHH: EVQLVESGGGLVQTGGSLRLSCAASGFTFSSYAMSWVRQAPGKGLEWVSGIKSSGDSTRYAGSVKGRFTISRDNAKNMLYLQMYSLKPEDTAVYYCAKSRVSRTGLYTYDNRGQGTQVTVSS
notes: Monovalent llama VHH; Tested as phage, as periplasm fraction and purified; also called 238C1; 238C1, D2
- binding result (CXCR3 [17]): no binding (tested: 3 nM)

B8: Nanobody 237G7 (VHH)
VHH: EVQLVESGGGLVQPGGSLRLSCAASSFIGNYHAIVWLRQAPGKELEGVSCITSRDSITYYASFVKGRFTISRDDAKNTVYLQMNNLKPEDTAVYYCAVBTSMTCPTLIVRFNYRGQGTQVTVSS
notes: Monovalent VHH
- pKi (human CXCR4 [4]): < 6.3
- pKi (human CXCR4 [5]): < 6.3
- pKi (human CXCR4 [6]): < 6.3
- percent inhibition of specific [125I]-CXCL12 binding (human CXCR4 [7]): 30 to 69%

B9: Nanobody 237D2 (VHH)
VHH: EVQLVESGGGLVQPGGSLRLSCAASGFTFDDYAMSWVRQAPGKGLEWVSAISWNGGSTDYADSVKGRFTISRDNAKNTLYLQMNSLKSEDTAEYYCARDQGPFYSGTYYYTRQYGYRGQGTQVTVSS
notes: Monovalent VHH; also called 237B6, A5, D2, D3, E4, F4, G2, G4, xH5, 237F1, C5, G1
- pKi (human CXCR4 [4]): < 6.3
- pKi (human CXCR4 [5]): < 6.3
- pKi (human CXCR4 [6]): < 6.3

B10: 238D2-15GS-238D4 (VHH)
chain: EVQLVESGGGLVQTGGSLRLSCAASGFTFSSYAMSWVRQAPGKGLEWVSGIKSSGDSTRYAGSVKGRFTISRDNAKNMLYLQMYSLKPEDTAVYYCAKSRVSRTGLYTYDNRGQGTQVTVSSGGGGSGGGGSGGGGSEVQLMESGGGLVQAGGSLRLSCAASGRTFNNYAMGWFRRAPGKEREFVAAITRSGVRSGVSAIYGDSVKDRFTISRDNAKNTLYLQMNSLKPEDTAVYTCAASAIGSGALRRFEYDYSGQGTQVTVSS
- reduction of the constitutively increased basal inositol phosphate accumulation, HEK293T-CXCR4 (N119A) [8]: 64%
